Measured values taken from US20250270584A1, “Gene editing to provide insect resistance in crops” (The Regents of the University of California, priority 2022, published 2025).

Each substance was assayed against GLR3.3-3Flag (Arabidopsis thaliana) (UniProt Q9C8E7) (assay: IP-MS, anti-Flag IP of GLR3.3-3Flag from leaves of transgenic plants; co-enrichment, may be indirect).
Sequence of GLR3.3-3Flag (Arabidopsis thaliana) (Q9C8E7 24-933): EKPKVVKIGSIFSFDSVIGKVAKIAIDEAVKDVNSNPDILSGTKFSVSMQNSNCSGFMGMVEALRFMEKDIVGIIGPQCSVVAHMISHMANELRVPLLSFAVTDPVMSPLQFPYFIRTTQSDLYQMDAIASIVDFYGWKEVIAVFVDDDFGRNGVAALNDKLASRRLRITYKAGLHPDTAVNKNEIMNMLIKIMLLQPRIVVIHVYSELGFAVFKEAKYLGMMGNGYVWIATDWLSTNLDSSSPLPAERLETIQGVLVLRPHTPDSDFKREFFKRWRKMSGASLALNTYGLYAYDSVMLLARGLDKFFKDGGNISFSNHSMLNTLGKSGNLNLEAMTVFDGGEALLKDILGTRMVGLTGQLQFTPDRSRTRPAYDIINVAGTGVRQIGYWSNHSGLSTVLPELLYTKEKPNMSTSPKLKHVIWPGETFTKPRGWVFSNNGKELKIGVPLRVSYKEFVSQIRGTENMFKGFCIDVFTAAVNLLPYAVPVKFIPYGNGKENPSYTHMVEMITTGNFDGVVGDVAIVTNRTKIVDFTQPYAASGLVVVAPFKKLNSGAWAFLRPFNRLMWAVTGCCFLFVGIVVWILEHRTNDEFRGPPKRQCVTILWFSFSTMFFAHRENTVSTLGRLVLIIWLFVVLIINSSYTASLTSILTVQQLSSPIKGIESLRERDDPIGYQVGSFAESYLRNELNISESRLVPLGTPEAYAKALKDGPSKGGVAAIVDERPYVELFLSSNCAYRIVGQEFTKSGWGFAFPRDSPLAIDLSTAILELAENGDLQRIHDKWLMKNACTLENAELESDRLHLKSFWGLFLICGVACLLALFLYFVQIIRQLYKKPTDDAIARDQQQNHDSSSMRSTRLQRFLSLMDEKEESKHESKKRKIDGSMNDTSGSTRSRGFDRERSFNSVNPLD

unique peptide number (unique peptides)	Substance
43	PWD (chloroplastidic phosphoglucan, water dikinase) (from UniProt Q6ZY51 55-1196) (enzyme)
8	AMY3 (plastid-localized α-amylase) (from UniProt Q94A41 56-887) (enzyme)
6	TGG1 (member of glycoside hydrolase family 1) (from UniProt P37702 20-541) (enzyme)
15	GLDP1 (glycine decarboxylase P-protein 1) (from UniProt Q94B78 68-1037) (enzyme)
5	KEA1 (K^+ efflux antiporter 1) (from UniProt Q9ZTZ7 50-1193)
21	LOS1 (translation elongation factor 2-like protein) (from UniProt Q9ASR1 1-843)
17	AHA2 (plasma membrane proton ATPase 2) (from UniProt P19456 2-948) (enzyme)
12	HSP70-2 (member of heat shock protein 70 family) (from UniProt P22954 1-653)
17	TKL1 (transketolase involved in carbon fixation) (from UniProt Q8RWV0 67-741) (enzyme)
14	ATMS1 (cobalamin-independent synthase family protein) (from UniProt O50008 1-765) (enzyme)
5	PIP2; 4 (plasma membrane intrinsic protein 2; 4) (from UniProt Q9FF53 1-291)
12	RCA (rubisco activase) (from UniProt P10896 59-474) (enzyme)
57	GLU1 (glutamate synthase 1) (from UniProt Q9ZNZ7 106-1622) (enzyme)
6	CAT2 (catalase) (from UniProt P25819 1-492) (enzyme)
12	VEN3 (carbamoyl phosphate synthetase (CPS) large subunit) (from UniProt Q42601 63-1187) (enzyme)
21	FTIP1 (multiple C2 domain and transmembrane region protein 1) (from UniProt Q9FL59 1-794)
4	GAPB (glyceraldehyde-3-phosphate dehydrogenase B subunit) (from UniProt P25857 81-447) (enzyme)
7	UBA1 (ubiquitin-activating enzyme (E1)) (from UniProt P93028 1-1080)
13	GLU2 (glutamate synthase 2) (from UniProt Q9T0P4 108-1629) (enzyme)
42	TPP2 (tripeptidyl peptidase II) (from UniProt F4JVN6 1-1380) (enzyme)
15	HSP70-1 (member of heat shock protein 70 family) (from UniProt P22953 2-651)

unique peptide number (unique peptides)	Substance
7	PIP2; 7 (plasma membrane intrinsic protein 3) (from UniProt P93004 1-280)
4	EDD1 (glycine-tRNA ligase) (from UniProt Q8L785 51-1067) (enzyme)
17	NIT1 (nitrilase isoenzyme family) (from UniProt P32961 2-346)
10	coatomer, alpha subunit (from UniProt Q9SJT9 1-1218)
7	CAM3 (calmodulin) (from UniProt P0DH98 1-149)
4	GLR3.2 (from UniProt Q93YT1 23-912) (receptor)
9	LOX2 (chloroplast lipoxygenase 2) (from UniProt P38418 57-896) (enzyme)
21	CLPC1 (Clp protease ATP-binding subunit homologue) (from UniProt Q9FI56 39-929)
9	GLR3.5 (from UniProt Q9SW97 30-953) (receptor)
7	PIP2; 1 (plasma membrane intrinsic protein 2A) (from UniProt P43286 1-287)
62	tRNA synthetase class I (I, L, M and V) family protein (from UniProt F4JLM5 1-1190) (enzyme)
11	GLDP2 (P-subunit of glycine decarboxylase) (from UniProt O80988 73-1044) (enzyme)
16	TIC110 (translocon at the chloroplast inner envelope) (from UniProt Q8LPR9 52-1016)
12	GLR2.6 (from UniProt Q9LFN8 32-967) (receptor)
7	CAM5 (calmodulin) (from UniProt Q682T9 1-149)
23	AHA1 (plasma membrane proton ATPase 1) (from UniProt P20649 2-949) (enzyme)
4	CAM6 (calmodulin) (from UniProt Q03509 1-149)
12	PPC2 (phosphoenolpyruvate carboxylase protein 2) (from UniProt Q5GM68 1-963) (enzyme)
6	CAT3 (catalase) (from UniProt Q42547 1-492) (enzyme)
11	CaM7 (calmodulin 7) (from UniProt P59220 1-149)

Substance	unique peptide number (unique peptides)
EIF3A (a subunit of eukaryotic initiation factor 3 (eIF3)) (from UniProt Q9LD55 1-987)	4
